From US20190185532A1 (UNIVERSITY OF BIRMINGHAM, published 2019)

Biological target: T1, MMRN2 (endogenous, HUVEC) (human, UniProt Q9H8L6 23-949)
T1 construct: Endogenous protein in HUVEC lysates (co-immunoprecipitation); also called multimerin-2
T1 sequence (looked up): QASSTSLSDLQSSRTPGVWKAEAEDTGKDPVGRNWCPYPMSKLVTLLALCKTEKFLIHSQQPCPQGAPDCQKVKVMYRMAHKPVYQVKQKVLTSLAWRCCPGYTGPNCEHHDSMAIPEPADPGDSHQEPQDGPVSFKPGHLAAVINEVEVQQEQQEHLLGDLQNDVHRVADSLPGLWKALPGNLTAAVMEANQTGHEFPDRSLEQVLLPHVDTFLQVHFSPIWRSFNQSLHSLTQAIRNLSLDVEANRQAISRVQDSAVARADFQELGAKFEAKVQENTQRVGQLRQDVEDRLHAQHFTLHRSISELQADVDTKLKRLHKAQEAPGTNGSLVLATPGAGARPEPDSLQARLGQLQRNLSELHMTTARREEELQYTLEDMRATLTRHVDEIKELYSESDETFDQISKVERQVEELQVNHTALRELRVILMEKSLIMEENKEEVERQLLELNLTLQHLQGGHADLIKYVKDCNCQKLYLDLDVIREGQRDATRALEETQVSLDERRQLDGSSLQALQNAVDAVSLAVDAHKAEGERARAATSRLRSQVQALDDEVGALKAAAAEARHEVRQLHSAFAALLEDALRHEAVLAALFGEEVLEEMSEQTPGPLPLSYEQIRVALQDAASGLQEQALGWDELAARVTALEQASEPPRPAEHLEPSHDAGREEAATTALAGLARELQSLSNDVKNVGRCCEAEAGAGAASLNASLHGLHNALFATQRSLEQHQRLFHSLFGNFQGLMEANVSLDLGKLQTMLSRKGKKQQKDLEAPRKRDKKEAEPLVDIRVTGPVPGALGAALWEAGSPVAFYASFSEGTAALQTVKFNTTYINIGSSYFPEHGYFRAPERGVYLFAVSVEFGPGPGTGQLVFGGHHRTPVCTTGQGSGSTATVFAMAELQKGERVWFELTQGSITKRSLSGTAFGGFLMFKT
Assay: flow cytometry on HUVEC
Experimental: FIG. 3. A distinct region of MMRN2 binds CLEC14A in the C-type lectin domain. (A) CLEC14A-ECD-Fc was used to pull down MMRN2^FL from HEK293T transfected lysates. hCLEC14A-ECD-Fc was pre-incubated with either PBS, mouse control IgG, or C1-5. […] (B) Flow cytometry analysis of CLEC14A-ECD-Fc binding to HUVEC surface. CLEC14A-ECD-Fc was pre-incubated with same conditions as in pull downs. […] Mann-Whitney test *p<0.05 n=4 error bars represent standard error mean (SEM). (C) HEK293T transfected with CLEC14A domain deletions were lysed and far western blotted with MMRN2^FL under non-reduced conditions. Upon detection of the MMRN2^FL His tag, MMRN2 binding is observed in all mutants except those lacking the CTLD or sushi domains. CLEC14A blot was included to show expression of each mutant protein. (D) Flow cytometry analysis of HEK293T transfected with chimera 1 CLEC14A^{THBD(CTLD)} or chimera 2 CLEC14A^{THBD(sushi)}. […]
HUVEC or transfected HEK293T cells were detached from tissue culture plates using cell dissociation buffer or scraped and 5×10⁵ cells were stained with 20 ug/mL of antibody of interest or 20 μg/mL of recombinant protein. […] Samples were analysed on a FACSCalibur machine (BD Biosciences). […] Isotype control staining or human Fc alone was used as background fluorescence and this was subtracted from the geometric mean fluorescence intensity of each sample. […]

- binding result: binds
B1: CLEC14A-ECD-Fc (human CLEC14A extracellular domain fused to an Fc tag) (Fc fusion)
chain: EHPTADRAGCSASGACYSLHHATMKRQAAEEACILRGGALSTVRAGAELRAVLALLRAGPGPGGGSKDLLFWVALERRRSHCTLENEPLRGFSWLSSDPGGLESDTLQWVEEPQRSCTARRCAVLQATGGVEPAGWKEMRCHLRANGYLCKYQFEVLCPAPRPGAASNLSYRAPFQLHSAALDFSPPGTEVSALCRGQLPISVTCIADEIGARWDKLSGDVLCPCPGRYLRAGKCAELPNCLDDLGGFACECATGFELGKDGRSCVTSGEGQPTLGGTGVPTRRPPATATSPVPQRTWPIRVDEKLGETPLVPEQDNSVTSIPEIPRWGSQSTMSTLQMSLQAESKATITPSGSVISKFNSTTSSATPQAFDSSS
notes: Expressed in HEK293T cells; also called hCLEC14A-ECD-Fc; C14A-Fc; not shown: human IgG Fc tag
